Publication PMC10397247

Key:
Test in all cases: two-hybrid library CCNG1;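 further: natural log of median RNA to DNA barcode read ratio; higher means stronger binding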
4H477-bH = target: T1, 4H477-bH
T1 chain: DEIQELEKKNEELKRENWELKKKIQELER

4H319-bH = target: T2, 4H319-bH
T2 chain: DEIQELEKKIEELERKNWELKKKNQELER

4H2438-bH = target: T3, 4H2438-bH
T3 chain: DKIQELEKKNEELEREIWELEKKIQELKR

4H2503-bH = target: T4, 4H2503-bH
T4 chain: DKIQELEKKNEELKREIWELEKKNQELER

4H492-bH = target: T5, 4H492-bH
T5 chain: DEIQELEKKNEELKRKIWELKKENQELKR

4H741-bH = target: T6, 4H741-bH
T6 chain: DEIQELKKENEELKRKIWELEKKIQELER

4H2717-bH = target: T7, 4H2717-bH
T7 chain: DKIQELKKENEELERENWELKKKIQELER

4H2839-bH = target: T8, 4H2839-bH
T8 chain: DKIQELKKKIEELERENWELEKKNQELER

4H348-bH = target: T9, 4H348-bH
T9 chain: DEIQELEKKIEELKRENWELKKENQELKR

4H3277-bH = target: T10, 4H3277-bH
T10 chain: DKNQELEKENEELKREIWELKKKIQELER

4H2473-bH = target: T11, 4H2473-bH
T11 chain: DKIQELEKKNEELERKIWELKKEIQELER

4H2223-bH = target: T12, 4H2223-bH
T12 chain: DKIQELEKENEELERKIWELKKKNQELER

4H40-bH = target: T13, 4H40-bH
T13 chain: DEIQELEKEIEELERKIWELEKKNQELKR

4H2588-bH = target: T14, 4H2588-bH
T14 chain: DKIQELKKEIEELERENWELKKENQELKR

4H2692-bH = target: T15, 4H2692-bH
T15 chain: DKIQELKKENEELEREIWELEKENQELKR

4H2915-bH = target: T16, 4H2915-bH
T16 chain: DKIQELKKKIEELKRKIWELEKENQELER

4H3057-bH = target: T17, 4H3057-bH
T17 chain: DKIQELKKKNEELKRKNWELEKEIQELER

P3A = target: T18, P3A
T18 chain: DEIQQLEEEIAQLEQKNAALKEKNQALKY

P4A = target: T19, P4A
T19 chain: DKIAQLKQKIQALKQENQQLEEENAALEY

P2A = target: T20, P2A
T20 chain: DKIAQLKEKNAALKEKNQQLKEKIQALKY

P5A = target: T21, P5A
T21 chain: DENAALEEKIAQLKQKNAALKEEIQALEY

P9A = target: T22, P9A
T22 chain: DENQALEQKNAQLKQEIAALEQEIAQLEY

P7A = target: T23, P7A
T23 chain: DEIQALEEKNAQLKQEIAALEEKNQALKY

P8A = target: T24, P8A
T24 chain: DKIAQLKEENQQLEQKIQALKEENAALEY

P6A = target: T25, P6A
T25 chain: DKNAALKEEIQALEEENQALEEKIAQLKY

B1: 4H2223-bH (peptide)
chain: DKIQELEKENEELERKIWELKKKNQELER
4H477-bH
  interaction score: -0.907
4H319-bH
  interaction score: -0.374
4H2438-bH
  interaction score: -0.678
4H2503-bH
  interaction score: 1.19
4H492-bH
  interaction score: -0.847
4H741-bH
  interaction score: 0.0741
4H2717-bH
  interaction score: 0.113
4H2839-bH
  interaction score: 0.582
4H348-bH
  interaction score: -1.35
4H3277-bH
  interaction score: 0.0226
4H2473-bH
  interaction score: 0.446
4H2223-bH
  interaction score: -0.882
4H40-bH
  interaction score: -1.6
4H2588-bH
  interaction score: 0.461
4H2692-bH
  interaction score: 0.736
4H2915-bH
  interaction score: 0.816
4H3057-bH
  interaction score: 0.455

B2: P2A (peptide)
chain: DKIAQLKEKNAALKEKNQQLKEKIQALKY
P3A
  interaction score: -1.21
P4A
  interaction score: -1.63
P2A
  interaction score: -1.07
P5A
  interaction score: -1.27
P9A
  interaction score: -0.481
P7A
  interaction score: -2.38
P8A
  interaction score: -0.85
P6A
  interaction score: -0.59
